Test: soluble fraction after stress (log2 fold change); higher = more stays soluble; pooled small domains, quantitative proteomics
Details: stress: 75 degC
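Further: 20 min heating vs room temperature control held 20 min.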

Sequence	soluble fraction (log2)
HMYLHSEFSPVTGQELHMKYDDSSTEEDPVMLVEGKDIQGNDFVKKIHLNDVDPENATPAEMTALRVHL	0.206
HMYLLPVTSTELKGNYPNPFNPETTISFDLKDAERVNLSIYNLKGQLVRTLVNSDLPIGRHRLIWDGNDS	-0.622
HMYLPGERMRIKITALGSNPKQGVGYLPDGMMVVVDEAATLVGRFVEIEFVKFLQTNSGRMMFAKVAT	-1.96
HMYMKGKVKWFDSKKGYGFITSENGKEIFVHFSGIAAKGFKSLNEGQTVEFEVANGAKGEQAVNVTV	-1.23
HMYMKTITEQFGERLKKIRTQKSLSQEQLSYLADIDRSYISDVERGARNISLENIYKLASALNIPPYLVLL	-0.341
HMYMLYQQLADSLRDKIYEGTYTFGDKIPSERTLAATFGISHLTVRKALAILEEEGLLDRRQGNGTFVRV	-1.09
HMYNIDSFMTKNYPTMERFTLSDVQKKYKTTFGLFVKQDELASMIEKTGRFNITSSKNVKYVNR	-1.88
HMYNPAYDAEIKVILELARHGYWEEARERADELLKAAPDDTGVKRIQTWVRQQEQRMREQAIEDSIRA	-0.288
HMYPEETVNKILDVSMQLFLEKGYEHTSIQDIVNHLGGLSKGAIYHHFKSKEDILDGVMNKLYQNN	-1.58
HMYPGQILEIYLDEIKRLYLNGLSSADIFAEIKEGSIPSVKKAIRSMKDGSAPVKITEAEESTRIAPS	-0.543
HMYPTPAAANRHFLDKWGHQEAYLGKVLNSRSRASEILNGKRPLSLSDLRTLRDNLGIPVDLLL	-0.648
HMYQKERDKEISEIETFLKKITNANGTRAYSDESIADMSYVELLNLYEGITSKLTEEEIENI	0.0659
HMYQPLYEQIKRMLTQSLIDGEWKAGEMIPSEMELAARFKVSQGTVRKAIDELVSENILMRRQGKGTFVH	-0.962
HMYSDDNKSILNLIDNLFNKENIKIDINAKKLLSNYLGVDRLVTKGEIEKAILFAGTKKHLSIEDISAFLS	-0.104
HMYSFPHQLLKLRTEKQLSQAELATRLFVSRQAVSKWENGDAEPSIDKLILLAKVFNVSLDRLILGT	-4.31
HMYSIDNPPDWLKNLPKGAIRIGVEVFNQVLSKADDEDRARMAAWSAIKAKYEKADDGQWQPKAA	0.0816
HMYSNDEIVNYLKNYIFDNFNLNELSDEELEEKIAELVQQQFAGQLLSLDEKVKLVNQVYSSIR	-0.0578
HMYSRQRDLILKALRENVVHPTADFIYTVLKEKEPNLSLATVYRNLNLLANEGIIRKIEGLDGVAHFDH	-1.85
HMYSVVGKKGIVIEDINYSTGTGQIKSEGEVWSAKTNEQINIPKGTEIEIESIDGVKVIVKPL	0.109
HMYTDGVPALTDLKKESKPGRRQYVGVEDIPKVLGGLGITILSTSKGLMSGHQAKKKNIGGELIASV	0.102
HMYTEIDDVKDLLSKIPSVNKLTTADRGMVQAARNAYDALDEDQKLYITIADVEKFNAAVEWMEEH	-0.186
HMYTVRDGDTVFGILNRFGVSLDELLSLNPELSNGLKAGMVLKIK	-0.542
HMYVADVVGMGIKDALYILENQGLRVVFTGKGVVKNQSIAVGEKIIKGEKIVLML	-1.88
HMYVQDPVDRLVLESALRLLREQEREIIFLHLVAGLKHREIAGLLHLPLSTVLSGYRRALTKMKSYLEE	-0.0135
HMYVTGETIRHLRTQRRMTQEQLAETLGVTGKAVSKWETGRGFPDMSLLEPLARALRISVPELLSGE	-1.07
HMYYNQGILKSGASVYGEPGITSSHRLEIPSGSFVDIVQEKDEWVYYEKNHVNHGWVLRENIYIPSL	0.149
HMYYQEDHDIILEETEDVTDPYLITLRGYIFLNNLQWVAARQAFLSADERFRHRHYSALIAPIMQTIDNAA	0.359
HMYYSERILTILEERGISPYRVSKETGISQSVFSNWKRKPTSRITAANLERLADYLGLPVEVLTG	-3.48
